{"source": "paper PMC8629787", "about": "(Cellular and Molecular Life Sciences: CMLS, 2021)", "molecular_target": "the molecule itself", "assay": "SEC"}
{"protein": "BambL, fucose-binding lectin of Burkholderia ambifaria (recombinant, unlabelled) (natural protein) not shown", "values": [{"measurement": "stoichiometry N", "result": 3}]}
